Data set [1] is described as follows: SEC; preparative SEC on Superdex 200 10/300 GL after Strep-Tactin affinity chromatography; running buffer 20 mM Tris/HCl pH 8.0, 150 mM NaCl; changes of pH, salt and buffering agent, addition of calcium or EDTA had no influence on the monomer/dimer ratio.
Data set [2] addresses SmuA(V465E), sucrose isomerase from Serratia plymuthica, produced in the periplasm of E. coli (Serratia plymuthica). The description is as above.
Data set [3] concerns the target SmuA(V465E), sucrose isomerase from Serratia plymuthica, produced in the cytoplasm of E. coli (Serratia plymuthica). Described as above.

Broadly, the stoichiometry N is the number of molecules, sites or subunits per partner or assembly.

“SmuA(V465E), sucrose isomerase from Serratia plymuthica, produced in the cytoplasm of E. coli”: the “ratio of dimer to monomer (SEC peaks)” value in data set [1] is “a ratio of 3 : 1”.
On to “SmuA(V465E), sucrose isomerase from Serratia plymuthica, produced in the periplasm of E. coli (enzyme)”, for which the stoichiometry N in data set [2] is 2.
Consider “SmuA(V465E), sucrose isomerase from Serratia plymuthica, produced in the cytoplasm of E. coli (enzyme)”, for which, in data set [3], the stoichiometry N turned out to be 2.
As to “SmuA(V465E), sucrose isomerase from Serratia plymuthica, produced in the periplasm of E. coli”, the “ratio between monomer and dimer (SEC peaks)” value in data set [1] is “the ratio between monomer and dimer to 10 : 1”.

For the origin of these results see PMC7496859.
